What all share (test): ITC; 10 μM β3 peptide in the sample cell titrated with αIIb peptide; bicelles of 43 mM DHPC, 17 mM POPC, 25 mM NaH2PO4/Na2HPO4 pH 7.4, 28 °C; stoichiometry fixed at 1:1
The target in assay [1] is integrin β3(A711P/W715Y) TM peptide (human) (UniProt P05106).
For assay [2], the target named is integrin β3(W715Y) TM peptide (human) (UniProt P05106).
Assay [3] addresses integrin β3(L712A) TM peptide (human) (UniProt P05106).
The target in assay [4] is integrin β3(A711P/L712A) TM peptide (human) (UniProt P05106).
For assay [5], the target named is integrin β3(A711P) TM peptide (human) (UniProt P05106).
In assay [6] the target is integrin β3 TM peptide (human) (UniProt P05106).

Turning to “integrin αIIb TM peptide (from UniProt P08514 989-1029)”, the KXY turned out to be 2200 in assay [1]; 1300 in assay [2]; 1900 in assay [3]; 4200 in assay [4]; 12700 in assay [5]. The dH in assay [1] is -14.4 kcal/mol; in assay [2] it was -14.2 kcal/mol; in assay [3], -12 kcal/mol; in assay [4] it was -12.8 kcal/mol; in assay [5], -16.9 kcal/mol.
With “integrin αIIb(R995A) TM peptide (from UniProt P08514 989-1029)”, in assay [5], the KXY is 4000 and the dH was -5.6 kcal/mol.
For “integrin αIIb(G972A) TM peptide (from UniProt P08514 989-1029)”, the KXY was determined as 1080 in assay [6] and 5500 in assay [5]. Besides, the dH in assay [6] is -14.2 kcal/mol; in assay [5], -16.2 kcal/mol.

The values are drawn from publication PMC4951694.
